The source of these data is US20190374506A1 (BETH ISREAL DEACONESS MEDICAL CENTER, published 2019).

One data set has as its target T1, HA-PTEN (human, UniProt P60484 1-403).
T1 construct: Expressed in DU145 cells and immunoprecipitated with anti-PTEN antibody for mass spectrometry; also called exogenous PTEN; pcDNA3-HA-PTEN; not shown: HA tag
In words: anti-PTEN immunoprecipitation from DU145 cells transfected with HA-PTEN, SDS-PAGE, mass-spectrometric peptide sequencing of the bands (association in the precipitate). The text has this:
FIG. 2A is a Western blot. Lysates from DU145 cells transfected with HA-PTEN were immunoprecipitated with an anti-PTEN antibody followed by mass-spectrometric peptide sequencing. WWP1 and NEDD4-1 were identified.
In order to identify the E3 ligases that induce PTEN atypical K27-linked poly-ubiquitination, exogenous PTEN was immunoprecipitated from DU145 cells, followed by identification of the proteins that interacted with PTEN by mass spectrometry (FIG. 2A; FIG. 18).

Data set [1] deals with the molecule itself. Briefly: gel filtration of HEK293 lysate, fractions on SDS-PAGE, anti-Myc blot. As for the experimental part: 293 cells were transfected with the indicated expression vectors. After 24 hours, cells were washed with PBS, lysed and filtered through a 0.45 μm syringe filter. 500 μl of lysate (4 mg/ml) was loaded into a Superdex200 10/300 GL column (GE Lifesciences Cat. No. 17-5175-01). Tandem columns gel filtrations were performed by further attaching a series Superdex 75 10/300 GL column (GE Lifesciences Cat. No. 17-5174-01). Samples were separated in a Superdex75 column first, followed by a Superdex 200 column. Chromatography was performed by using anAKTA FPLC (GE Lifesciences Cat. No. 18-1900-26), and protein complexes were resolved and eluted with lysis buffer at 0.5 ml/minute, 500 μl per fraction. 40 μl aliquots of each fraction were separated by SDS-PAGE and western blot analysis was performed with the indicated antibodies. Before sample separation, molecular-weight resolution of the columns was estimated by running the Gel Filtration Calibration Kit (GE Lifesciences, #28-4038-42) to determine retention times on Coomassie-stained SDS-PAGE protein gels.

A further data set addresses T2, Flag-WWP1 (Homo sapiens (Human), UniProt Q9H0M0 1-922).
T2 construct: also called full-length Flag-WWP1; recombinant Flag-WWP1; not shown: Flag tag
In words: reciprocal co-immunoprecipitation from 293 cells: IP HA / WB Flag and IP Flag / WB HA.

B1: Cytoskeleton-associated protein 4 (other)
chain: MPSAKQRGSKGGHGAASPSEKGAHPSGGADDVAKKPPPAPQQPPPPPAPHPQQHPQQHPQNQAHGKGGHRGGGGGGGKSSSSSSASAAAAAAAASSSASCSRRLGRALNFLFYLALVAAAAFSGWCVHHVLEEVQQVRRSHQDFSRQREELGQGLQGVEQKVQSLQATFGTFESILRSSQHKQDLTEKAVKQGESEVSRISEVLQKLQNEILKDLSDGIHVVKDARERDFTSLENTVEERLTELTKSINDNIAIFTEVQKRSQKEINDMKAKVASLEESEGNKQDLKALKEAVKEIQTSAKSREWDMEALRSTLQTMESDIYTEVRELVSLKQEQQAFKEAADTERLALQALTEKLLRSEESVSRLPEEIRRLEEELRQLKSDSHGPKEDGGFRHSEAFEALQQKSQGLDSRLQHVEDGVLSMQVASARQTESLESLLSKSQEHEQRLAALQGRLEGLGSSEADQDGLASTVRSLGETQLVLYGDVEELKRSVGELPSTVESLQKVQEQVHTLLSQDQAQAARLPPQDFLDRLSSLDNLKASVSQVEADLKMLRTAVDSLVAYSVKIETNENNLESAKGLLDDLRNDLDRLFVKVEKIHEKV
As for B1, in the data set with HA-PTEN, the binding result was “binds”.

B2: Monofunctional C1-tetrahydrofolate synthase (enzyme)
chain: SSGGGGGGGGGREGLLGQRRPQDGQARSSCSPGGRTPAARDSIVREVIQNSKEVLSLLQEKNPAFKPVLAIIQAGDDNLMQEINQNLAEEAGLNITHICLPPDSSEAEIIDEILKINEDTRVHGLALQISENLFSNKVLNALKPEKDVDGVTDINLGKLVRGDAHECFVSPVAKAVIELLEKSGVNLDGKKILVVGAHGSLEAALQCLFQRKGSMTMSIQWKTRQLQSKLHEADIVVLGSPKPEEIPLTWIQPGTTVLNCSHDFLSGKVGCGSPRIHFGGLIEEDDVILLAAALRIQNMVSSGRRWLREQQHRRWRLHCLKLQPLSPVPSDIEISRGQTPKAVDVLAKEIGLLADEIEIYGKSKAKVRLSVLERLKDQADGKYVLVAGITPTPLGEGKSTVTIGLVQALTAHLNVNSFACLRQPSQGPTFGVKGGAAGGGYAQVIPMEEFNLHLTGDIHAITAANNLLAAAIDTRILHENTQTDKALYNRLVPLVNGVREFSEIQLARLKKLGINKTDPSTLTEEEVSKFARLDIDPSTITWQRVLDTNDRFLRKITIGQGNTEKGHYRQAQFDIAVASEIMAVLALTDSLADMKARLGRMVVASDKSGQPVTADDLGVTGALTVLMKDAIKPNLMQTLEGTPVFVHAGPFANIAHGNSSVLADKIALKLVGEEGFVVTEAGFGADIGMEKFFNIKCRASGLVPNVVVLVATVRALKMHGGGPSVTAGVPLKKEYTEENIQLVADGCCNLQKQIQITQLFGVPVVVALNVFKTDTRAEIDLVCELAKRAGAFDAVPCYHWSVGGKGSVDLARAVREAASKRSRFQFLYDVQVPIVDKIRTIAQAVYGAKDIELSPEAQAKIDRYTQQGFGNLPICMAKTHLSLSHQPDKKGVPRDFILPISDVRASIGAGFIYPLVGTMSTMPGLPTRPCFYDIDLDTETEQVKGLF
Regarding B2, in the data set with HA-PTEN, the binding result is recorded as “binds”.

B3: Isoform 2 of Putative RNA-binding protein 15 (other)
chain: MRTAGRDPVPRRSPRWRRAVPLCETSAGRRVTQLRGDDLRRPATMKGKERSPVKAKRSRGGEDSTSRGERSKKLGGSGGSNGSSSGKTDSGGGSRRSLHLDKSSSRGGSREYDTGGGSSSSRLHSYSSPSTKNSSGGGESRSSSRGGGGESRSSGAASSAPGGGDGAEYKTLKISELGSQLSDEAVEDGLFHEFKRFGDVSVKISHLSGSGSGDERVAFVNFRRPEDARAAKHARGRLVLYDRPLKIEAVYVSRRRSRSPLDKDTYPPSASVVGASVGGHRHPPGGGGGQRSLSPGGAALGYRDYRLQQLALGRLPPPPPPPLPRDLERERDYPFYERVRPAYSLEPRVGAGAGAAPFREVDEISPEDDQRANRTLFLGNLDITVTESDLRRAFDRFGVITEVDIKRPSRGQTSTYGFLKFENLDMSHRAKLAMSGKIIIRNPIKIGYGKATPTTRLWVGGLGPWVPLAALAREFDRFGTIRTIDYRKGDSWAYIQYESLDAAHAAWTHMRGFPLGGPDRRLRVDFADTEHRYQQQYLQPLPLTHYELVTDAFGHRAPDPLRGARDRTPPLLYRDRDRDLYPDSDWVPPPPPVRERSTRTAATSVPAYEPLDSLDRRRDGWSLDRDRGDRDLPSSRDQPRKRRLPEESGGRHLDRSPESDRPRKRHCAPSPDRSPELSSSRDRYNSDNDRSSRLLLERPSPIRDRRGSLEKSQGDKRDRKNSASAERDRKHRTTAPTEGKSPLKKEDRSDGSAPSTSTASSKLKSPSQKQDGGTAPVASASPKLCLAWQGMLLLKNSNFPSNMHLLQGDLQVASSLLVEGSTGGKVAQLKITQRLRLDQPKLDEVTRRIKVAGPNGYAILLAVPGSSDSRSSSSSAASDTATSTQRPLRNLVSYLKQKQAAGVISLPVGGNKDKENTGVLHAFPPCEFSQQFLDSPAKALAKSEEDYLVMIIVRGAS
On to B3, for which the binding result in the data set with HA-PTEN was “binds”.

B4: Isoform 2 of Structural maintenance of chromosomes protein 2 (other)
chain: MHIKSIILEGFKSYAQRTEVNGFDPLFNAITGLNGSGKSNILDSICFLLGISNLSQVRASNLQDLVYKNGQAGITKASVSITFDNSDKKQSPLGFEVHDEITVTRQVVIGGRNKYLINGVNANNTRVQDLFCSVGLNVNNPHFLIMQGRITKVLNMKPPEILSMIEEAAGTRMYEYKKIAAQKTIEKKEAKLKEIKTILEEEITPTIQKLKEERSSYLEYQKVMREIEHLSRLYIAYQFLLAEDTKVRSAEELKEMQDKVIKLQEELSENDKKIKALNHEIEELEKRKDKETGGILRSLEDALAEAQRVNTKSQSAFDLKKKNLACEESKRKELEKNMVEDSKTLAAKEKEVKKITDGLHALQEASNKDAEALAAAQQHFNAVSAGLSSNEDGAEATLAGQMMACKNDISKAQTEAKQAQMKLKHAQQELKNKQAEVKKMDSGYRKDQEALEAVKRLKEKLEAEMKKLNYEENKEESLLEKRRQLSRDIGRLKETYEALLARFPNLRFAYKDPEKNWNRNCVKGLVASLISVKDTSATTALELVAGERLYNVVVDTEVTGKKLLERGELKRRYTIIPLNKISARCIAPETLRVAQNLVGPDNVHVALSLVEYKPELQKAMEFVFGTTFVCDNMDNAKKVAFDKRIMTRTVTLGGDVFDPHGTLSGGARSQAASILTKFQELKDVQDELRIKENELRALEEELAGLKNTAEKYRQLKQQWEMKTEEADLLQTKLQQSSYHKQQEELDALKKTIEESEETLKNTKEIQRKAEEKYEVLENKMKNAEAERERELKDAQKKLDCAKTKADASSKKMKEKQQEVEAITLELEELKREHTSYKQQLEAVNEAIKSYESQIEVMAAEVAKNKESVNKAQEEVTKQKEVITAQDTVIKAKYAEVAKHKEQNNDSQLKIKELDHNISKHKREAEDGAAKVSKMLKDYDWINAERHLFGQPNSAYDFKTNNPKEAGQRLQKLQEMKEKLGRNVNMRAMNVLTEAEERYNDLMKKKRIVENDKSKILTTIEDLDQKKNQALNIAWQKVNKDFGSIFSTLLPGANAMLAPPEGQTVLDGLEFKVALGNTWKENLTELSGGQRQKQQNHTTG
Consider B4, for which the binding result with HA-PTEN is reported as “binds”.

B5: PTEN K342/K344R mutant (enzyme, not shown: small tags and cut ends)
chain: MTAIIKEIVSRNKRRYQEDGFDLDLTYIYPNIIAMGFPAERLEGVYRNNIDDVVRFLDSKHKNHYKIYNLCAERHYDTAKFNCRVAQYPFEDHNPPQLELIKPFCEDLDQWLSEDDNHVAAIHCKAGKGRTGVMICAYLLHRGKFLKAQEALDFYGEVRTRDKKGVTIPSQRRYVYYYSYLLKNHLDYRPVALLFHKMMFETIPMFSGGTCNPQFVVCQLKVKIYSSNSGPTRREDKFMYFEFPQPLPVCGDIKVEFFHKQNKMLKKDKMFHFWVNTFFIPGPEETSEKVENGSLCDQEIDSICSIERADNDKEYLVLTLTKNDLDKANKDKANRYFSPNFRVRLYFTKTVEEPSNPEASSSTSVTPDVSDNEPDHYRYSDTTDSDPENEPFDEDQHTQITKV
notes: also called Myc-PTEN K342/K344R mutant; PTEN K342/K344R ubiquitination defective mutant
Take B5: the binding result in data set [1] is given as “binds”.

B6: N-terminal PTEN (1-187) (enzyme, not shown: small tags and cut ends)
chain: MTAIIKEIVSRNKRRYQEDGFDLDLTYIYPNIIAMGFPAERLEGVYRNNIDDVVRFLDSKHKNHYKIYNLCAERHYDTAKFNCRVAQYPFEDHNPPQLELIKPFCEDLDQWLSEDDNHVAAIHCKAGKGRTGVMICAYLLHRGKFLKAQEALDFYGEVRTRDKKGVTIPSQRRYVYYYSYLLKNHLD
As to B6, the binding result with Flag-WWP1 is “no binding”.
